In patent US20240317816A1, “PEPTIDES FOR IMMUNOTHERAPY” (Genevive, Inc., priority 2021, published 2024):

Columns and labels:
Assay type in all cases: cell-based
CCR7 [1] = target: T1, CCR7 (Homo sapiens, UniProt P32248); test: SelectScreen agonist/antagonist assay, chemokine receptor expressing U2OS cells
T1 construct: expressed in transfected cells
T1 sequence (P32248 25-378): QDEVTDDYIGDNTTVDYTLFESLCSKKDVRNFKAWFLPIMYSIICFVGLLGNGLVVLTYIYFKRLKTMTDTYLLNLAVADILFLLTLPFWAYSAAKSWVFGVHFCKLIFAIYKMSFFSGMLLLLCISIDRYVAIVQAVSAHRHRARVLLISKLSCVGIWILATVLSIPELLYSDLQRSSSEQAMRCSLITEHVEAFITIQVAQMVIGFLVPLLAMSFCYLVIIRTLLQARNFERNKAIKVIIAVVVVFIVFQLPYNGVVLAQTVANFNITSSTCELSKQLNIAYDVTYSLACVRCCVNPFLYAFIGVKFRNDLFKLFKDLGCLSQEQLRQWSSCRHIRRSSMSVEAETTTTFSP
Method: (§1) In agonist assays, chemokine receptor expressing U2OS cells are thawed and resuspended in Assay Media (DMEM, 1% dialyzed FBS, 25 mM HEPES pH 7.3, 0.1 mM NEAA, 100 U/mL/100 μg/mL Pen/Strep) to a concentration of 312,500 cells/mL. 4 μL of a 10× serial dilution of I-TAC (control agonist starting concentration, 500 nM) or compounds are added to appropriate wells of a 384-well TC-Treated assay plate. 32 μL of cell suspension (10,000 cells) is added to each well. 4 μL of Assay Media is added to all wells to bring the final assay volume to 40 μL. The plate is incubated for 16-24 hours at 37° C./5% CO2 in a humidified incubator. 8 μL of 1 μM Substrate+Solution D Loading Solution is added to each well and the plate is incubated for 2 hours at room temperature. The plate is read on a fluorescence plate reader.
In antagonist assays, CXCR3-bla U2OS cells were thawed and prepared as described above for the Agonist assay. 4 μL of 10× compounds or assay media was added to appropriate wells of a TC-Treated assay plate. 32 μL of cell suspension was added to the wells and pre-incubated at 37° C./5% CO2 in a humidified incubator with compounds and control antagonist titration for 30 minutes. 4 μL of 10× control agonist I-TAC at the pre-determined EC80 concentration is added to wells containing the control antagonist or compounds. […] The plate is read on a fluorescence plate reader.

CXCR4 [2] = target: T2, CXCR4 (Homo sapiens, UniProt P61073); test: as above
T2 construct: host or cells: U2OS
T2 sequence (P61073 whole entry): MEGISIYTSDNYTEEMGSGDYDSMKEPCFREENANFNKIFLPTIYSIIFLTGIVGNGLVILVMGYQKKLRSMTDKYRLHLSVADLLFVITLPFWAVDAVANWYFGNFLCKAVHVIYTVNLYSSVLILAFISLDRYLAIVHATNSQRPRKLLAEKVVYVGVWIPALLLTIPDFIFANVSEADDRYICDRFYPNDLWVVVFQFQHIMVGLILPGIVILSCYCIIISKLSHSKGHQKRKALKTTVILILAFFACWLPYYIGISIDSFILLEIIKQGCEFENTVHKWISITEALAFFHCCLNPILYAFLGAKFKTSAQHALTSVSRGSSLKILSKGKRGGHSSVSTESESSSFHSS

CCR7 [3] = target: T1, CCR7; test: gpcrMAX PathHunter β-Arrestin Assay
Description: (§2) The PathHunter® β-Arrestin Assay monitored activation of a panel of 168 G-protein coupled receptors (GPCRs) with […] activation of the GPCR in agonist and antagonist mode.
(§3) where the test sample is the peptide, the vehicle control is DMSO (0% activity), and the control ligand is control compound (100% activity).
(§4) Peptides SG-3-00802 and SG-3-05021 were identified as an agonist, an antagonist, a PAM (Positive Allosteric Modulator), or an inverse-agonist. Agonist, antagonist, PAM, and inverse-agonist were identified according to the guidelines in Table 8. The basal activity/noise is a % activity of −20% to 20% for both agonist and antagonist modes. A PAM (Positive Allosteric Modulator) binds to a receptor, at a different site than the agonist, to change the receptor's response to the agonist. An inverse-Agonist is a binding partner with agonistic shutting down of basal activity in the cell. An antagonist antagonizes the activity of a particular binding partner.

CXCR3 [4] = target: T3, CXCR3 (Homo sapiens, UniProt P49682); test: gpcrMAX PathHunter β-Arrestin Assay
T3 sequence (P49682 1-368): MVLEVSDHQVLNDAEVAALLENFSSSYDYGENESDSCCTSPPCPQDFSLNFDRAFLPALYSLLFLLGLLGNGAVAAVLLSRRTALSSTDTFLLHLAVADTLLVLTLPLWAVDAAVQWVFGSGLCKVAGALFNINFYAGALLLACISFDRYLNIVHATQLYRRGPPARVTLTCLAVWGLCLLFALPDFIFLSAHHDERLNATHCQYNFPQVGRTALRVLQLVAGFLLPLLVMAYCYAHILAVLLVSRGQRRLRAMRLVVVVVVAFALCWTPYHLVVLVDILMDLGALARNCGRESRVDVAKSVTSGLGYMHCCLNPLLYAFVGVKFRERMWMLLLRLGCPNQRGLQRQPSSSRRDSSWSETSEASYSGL
Description: as §2, §3, §4

CXCR4 [5] = target: T2, CXCR4; test: gpcrMAX PathHunter β-Arrestin Assay
Description: as §2, §3, §4

CXCR3 [6] = target: T3, CXCR3; test: SelectScreen agonist/antagonist assay, CXCR3-bla U2OS cells; design: TEV protease site; Gal4-VP16 transcription factor ('Ga14-VP16' [sic]); Tango cell line; host or cells: Tango GPCR-bla U2OS; conditions: for SelectScreen Antagonist Mode: control agonist I-TAC at EC80
Method: as §1
In antagonist assays, CXCR3-bla U2OS cells were thawed and prepared as described above for the Agonist assay. 4 μL of 10× compounds or assay media was added to appropriate wells of a TC-Treated assay plate. 32 μL of cell suspension was added to the wells and pre-incubated at 37° C./5% CO2 in a humidified incubator with compounds and control antagonist titration for 30 minutes. 4 μL of 10× control agonist I-TAC at the pre-determined EC80 concentration is added to wells containing the control antagonist or compounds. The plate is incubated for 16-24 hours at 37° C./5% CO2 in a humidified incubator. 8 μL of 1 μM Substrate+Solution D Loading Solution is added to each well and the plate is incubated for 2 hours at room temperature. The plate is read on a fluorescence plate reader.
Tango™ CXCR3-bla U2OS cells contain the human chemokine (C-X-C motif) receptor 3 linked to a TEV protease site and a Ga14-VP16 transcription factor stably integrated into the Tango™ GPCR-bla U2OS cell line. This parental cell line stably expresses a beta-arrestin/TEV protease fusion protein and the beta-lactamase reporter gene under the control of a UAS response element. The Tango™ CXCR3-bla U2OS cells have been functionally validated for a response to I-TAC (CXCL11).

Sequence	SelectScreen Agonist Mode (CCR7 [1])	SelectScreen Agonist Mode (CXCR4 [2])	gpcrMAX Agonist Mode (% Agonist Activity) (CCR7 [3]) [%]	gpcrMAX Antagonist Mode (% Antagonist Activity) (CCR7 [3]) [%]	gpcrMAX Agonist Mode (% Agonist Activity) (CXCR3 [4]) [%]	gpcrMAX Antagonist Mode (% Antagonist Activity) (CXCR3 [4]) [%]	gpcrMAX Agonist Mode (% Agonist Activity) (CXCR4 [5]) [%]	gpcrMAX Antagonist Mode (% Antagonist Activity) (CXCR4 [5]) [%]	SelectScreen Agonist Mode (CXCR3 [6])	SelectScreen Antagonist Mode (CXCR3 [6])	SelectScreen Antagonist Mode (CXCR4 [2])	Interpretation (CCR7 [3])
LGKTDWIEKYFKVKKEKIDKMQRFLQG (peptide for immunotherapy; SG-3-05021)	no agonistic activity and No	no agonistic activity and No	0	−18	−4	−20	1	10	no agonistic activity and No	reverse antagonistic activity (sensitization) and PAM		
MKVRPSVKPMCEKCKIIRRKGRVMVICENPKHKQRQG [SG-3-00802]	weak agonistic activity and No	no agonistic activity and No	0	0	−4	−32	−14	99	weak agonistic activity and No	potent reverse antagonistic activity (sensitization) and PAM	moderate antagonistic activity and Yes	No
